The values that follow are results of earlier work, collected in publication PMC2888655.

Data set [1] deals with IGF2 (Homo sapiens) (UniProt P01344). Nature of the data set: SPR.
The target of data set [2] is IGF1 (Homo sapiens) (UniProt P05019). Kind of data set: SPR.
The target is the same in data set [3].
The target in data set [4] is IGF2 (Homo sapiens) (UniProt P01344).

Where two headings read alike, the source gives them in different places.

Chain of IGF2 (Homo sapiens) (P01344 25-91): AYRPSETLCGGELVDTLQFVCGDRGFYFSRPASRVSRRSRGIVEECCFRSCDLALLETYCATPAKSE
Chain of IGF1R (from UniProt Q05688) (Q05688 14-208): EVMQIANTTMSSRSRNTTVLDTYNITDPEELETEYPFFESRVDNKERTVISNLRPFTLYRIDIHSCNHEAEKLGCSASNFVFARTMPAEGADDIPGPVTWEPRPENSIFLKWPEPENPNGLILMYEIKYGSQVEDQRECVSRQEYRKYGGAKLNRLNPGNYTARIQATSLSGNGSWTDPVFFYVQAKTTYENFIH
Chain of IGF1R (from UniProt P08069) (P08069 31-736): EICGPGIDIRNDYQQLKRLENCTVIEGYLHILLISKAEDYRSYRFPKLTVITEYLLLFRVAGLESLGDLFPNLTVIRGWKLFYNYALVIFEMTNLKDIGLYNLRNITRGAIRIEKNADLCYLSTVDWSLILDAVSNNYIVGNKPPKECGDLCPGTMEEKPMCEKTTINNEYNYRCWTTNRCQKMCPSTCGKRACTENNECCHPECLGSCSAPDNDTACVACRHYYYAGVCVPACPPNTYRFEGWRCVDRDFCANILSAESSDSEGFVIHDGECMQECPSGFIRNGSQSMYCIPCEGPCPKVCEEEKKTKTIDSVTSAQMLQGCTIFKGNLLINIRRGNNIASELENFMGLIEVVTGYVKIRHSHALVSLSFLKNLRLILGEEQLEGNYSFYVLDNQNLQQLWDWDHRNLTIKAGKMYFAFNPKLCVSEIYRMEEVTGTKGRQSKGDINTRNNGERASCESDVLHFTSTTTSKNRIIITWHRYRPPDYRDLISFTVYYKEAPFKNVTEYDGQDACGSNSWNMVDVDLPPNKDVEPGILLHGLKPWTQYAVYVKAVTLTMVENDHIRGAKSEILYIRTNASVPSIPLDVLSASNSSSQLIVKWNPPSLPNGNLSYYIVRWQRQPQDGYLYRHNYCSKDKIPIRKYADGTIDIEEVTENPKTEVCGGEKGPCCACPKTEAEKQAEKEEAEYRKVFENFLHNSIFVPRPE
Chain of IGF1R (from UniProt P08069) (P08069 741-935): as the sequence (Q05688 14-208) above, with E1D, I5V, V19A, L20A, T189G counted along it
Chain of IGF1 (Homo sapiens) (P05019 49-118): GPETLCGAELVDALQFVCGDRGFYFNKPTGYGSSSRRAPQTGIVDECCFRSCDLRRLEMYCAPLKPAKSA

Regarding IGF1R (from UniProt P08069), the results for the Kd with IGF2 (Homo sapiens) [1] and in the data set with IGF1 (Homo sapiens) [2] were 17.8 nM and 4.45 nM, respectively.
Turning to IGF1R (from UniProt Q05688), the Kd in the data set with IGF1 (Homo sapiens) [3] and with IGF2 (Homo sapiens) [4] was 1 nM each time.
